The record followed here is the RNAGym collection of RNA variant scans (doi:10.1073/pnas.2313332121).

The labels stand for the following.
B1: TPR 5TU (parent)
chain: GGAUCUUCUCGAUCUAACAAAAAAGACAAAUCUGCCACAAAGCUUGAGAGCAUCUUCGGAUGCAGAGGCGGCAGCCUUCGGUGGCGCGAUAGCGCCAACGUUCUCAACUAUGACACGCAAAACGCGUGCUCCGUUGAAUGGAGUUUAUCAUG

Fewer inactive variants are shown than the library holds. Some results are limits rather than exact numbers.

This data set covers variants of B1. Description: polymerase ribozyme fitness, log enrichment relative to wild type (log ratio); higher = more active; in vitro selection for triplet polymerase activity. The essentials:
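PCR was used to build mutant libraries for each subunit of a heterodimeric triplet polymerase ribozyme, which were then transcribed. A single in vitro selection round, in triplicate, used a frozen incubation at −7 °C and recovered extended constructs by gel excision, streptavidin beads and RT-PCR. Fitness is the logarithm of genotype enrichment relative to wild-type enrichment, averaged over replicates with inverse-variance weights. The logarithm is base 2, and after Illumina sequencing only genotypes with ≥10 input reads and ≥1 read per output were kept.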
Take A23C U144C: the “polymerase ribozyme fitness (log ratio)” value was -4.15. C8U A19C U33G U53A U55A C96G C108U: the “polymerase ribozyme fitness (log ratio)” value was -3.8.

In the case of A60C C76U C93U, the “polymerase ribozyme fitness (log ratio)” value was -3.48. As for G71C C129A, the figure is not above -4.2.

For the variant C54U G59C G83A G117U, the “polymerase ribozyme fitness (log ratio)” value is -0.252. Turning to U53A A107U U144G, the “polymerase ribozyme fitness (log ratio)” value is -2.6. On to U55G C108G, for which the “polymerase ribozyme fitness (log ratio)” value was not above -4.2.

U53G A107C: the “polymerase ribozyme fitness (log ratio)” value is not above -4.2. Regarding A49C U55G C76U C87A C99U C105U A120U, the “polymerase ribozyme fitness (log ratio)” value was not above -4.2. Take G50A C57G G81A C85U C116U: the “polymerase ribozyme fitness (log ratio)” value was -2.31. A29C A39G U139A: the “polymerase ribozyme fitness (log ratio)” value is not above -4.2. Then A17G U45G G80U, with not above -4.2. As for G25C G86A G94U, the figure is -3.91. Then U9G A12U A19U A21U G58A C76U G84A A106U, with not above -4.2; and A49G G50A G84A A97G, with -3.11. Turning to C43A G80C G94U, the “polymerase ribozyme fitness (log ratio)” value was not above -4.2. As for A41U G68U C93U A106G, the figure is not above -4.2; as for A17G C27U A49U C79A G83U C87U A120U, not above -4.2; as for C87G U144G, not above -4.2. Then C18G C57G G80U C87A U127C G128C, with not above -4.2; and U53G G58C C95G A122U, with not above -4.2; and U6C A26C A28G, with -3.84. Then A22U C125U, with -0.442; and C93G A122U, with -2.98; and C10U A40G, with -4.12. For C51G C87U C114G, the “polymerase ribozyme fitness (log ratio)” value was not above -4.2. On to U6A C14G G34A C87U C105U U145G, for which the “polymerase ribozyme fitness (log ratio)” value was -4.05.

As to A12G A29C C35G C95A C118A G133C, the “polymerase ribozyme fitness (log ratio)” value is not above -4.2. As for G80U, the figure is -0.409; as for G11C C27U G92U, -2.73; as for C10A C93G, not above -4.2.

Consider A41U C69U C87U, for which the “polymerase ribozyme fitness (log ratio)” value is -2.75.

On to U31G G59A, for which the “polymerase ribozyme fitness (log ratio)” value amounted to 0.625.

In the case of C14G G81A C87U A106C G140U, the “polymerase ribozyme fitness (log ratio)” value was not above -4.2.

Regarding G80C G88C G92A G136U, the “polymerase ribozyme fitness (log ratio)” value was not above -4.2. With C114U A137C, the “polymerase ribozyme fitness (log ratio)” value was -3.52. Then U53A C57G G74C C87A C93A C149A, with not above -4.2. In the case of A19C A41G C131A A138U, the “polymerase ribozyme fitness (log ratio)” value was not above -4.2.

On to G100A, for which the “polymerase ribozyme fitness (log ratio)” value was -3.76. As for U4C C5G U55A C75A G88C G133U, the “polymerase ribozyme fitness (log ratio)” value is -4.17. Consider U61A A107C G128U U139A, for which the “polymerase ribozyme fitness (log ratio)” value was not above -4.2. With A3U A41U, the “polymerase ribozyme fitness (log ratio)” value is -1.29. For the variant A73G G86A A98U G117U C149U, the “polymerase ribozyme fitness (log ratio)” value was -4.18. As for G83C U101C A119G A122U U135C U145A, the figure is -3.51; as for U7G U44G U55G C99A, not above -4.2; as for A20U C54G, -2.64.

On to U13A A16G G86U, for which the “polymerase ribozyme fitness (log ratio)” value is -2.89. As to A17U G81C U102G U130G G141A, the “polymerase ribozyme fitness (log ratio)” value was not above -4.2. Regarding A16G A26C C32U A47C U53A A91G C96G, the “polymerase ribozyme fitness (log ratio)” value is not above -4.2. As for A19U C85U, the figure is -0.763; as for U4G U7C A16G C96G, -2.73; as for U15G G59U U135G, -3.96.

As for U55A C93G G143A, the “polymerase ribozyme fitness (log ratio)” value is -3.93. Then A73G C85G, with -1.1; and U15C U61A A89G A98G, with -1.62; and A40U G88A, with -3.65.

As to U4A A60C G71U G92C C108G G117A G124U A137C, the “polymerase ribozyme fitness (log ratio)” value was not above -4.2.

Take C63U G70C C87G A89G C96A G126C: the “polymerase ribozyme fitness (log ratio)” value was not above -4.2. On to U53A U144A, for which the “polymerase ribozyme fitness (log ratio)” value is -1.56. Then A39G G50A G81C U82C G92C G140A U151C G152C, with not above -4.2; and U9C C85U, with -3.24. Then C8U C14G G50C A106U A110G, with not above -4.2.

Turning to G11A A39U, the “polymerase ribozyme fitness (log ratio)” value is -3.28. On to A21C A26U G140C U146A, for which the “polymerase ribozyme fitness (log ratio)” value is not above -4.2.

As for A21U C96U C108U C132A, the “polymerase ribozyme fitness (log ratio)” value was not above -4.2.

Take A16U C18A A21C A73U G92U: the “polymerase ribozyme fitness (log ratio)” value is -2.75.

Consider A20U A113C G133C, for which the “polymerase ribozyme fitness (log ratio)” value is not above -4.2. As for G11A U55A A73G, the figure is -1.2; as for C38U G59A A60C, -1.48. As for C18U G88C C103A G112C G143C, the figure is not above -4.2; as for G67C G92U C99U A107U U148A, not above -4.2; as for A21C A22U A89U G92C G94U G141A, not above -4.2. Turning to A39U U55G G58U U78G C85U U90C C105A G136U A142C, the “polymerase ribozyme fitness (log ratio)” value was not above -4.2. Turning to C75G G84U, the “polymerase ribozyme fitness (log ratio)” value is not above -4.2.

For the variant A52G C57A G84A, the “polymerase ribozyme fitness (log ratio)” value was -0.599. Then C8A G34C U45A G50A U55A G74A A91G U102G G140C G141A, with not above -4.2; and A24C A37C G59A C99G A107U, with not above -4.2; and U55A A107C, with not above -4.2. Then A40U U130A, with -3.96; and C51G U53A G83C C118U G128A, with not above -4.2. Then A26C C87U A122G A142G, with -3.94. For the variant C5U A121G, the “polymerase ribozyme fitness (log ratio)” value was found to be 0.614. As for A17G A26C C32U G59A C75U, the figure is not above -4.2.
